Measured values from patent US20130039923A1 (Novo Nordisk, published 2013).
Positions count from the first letter of the chain named. Names and notes keep the numbering of the source. Values belong to the molecule of their own block, whether it stands above or below them.

T1: human IL20R1/IL20R2 receptor complex (human, UniProt Q9UHF4 30-553; Q6UXL0 30-311)
T1 sequence (looked up) 1: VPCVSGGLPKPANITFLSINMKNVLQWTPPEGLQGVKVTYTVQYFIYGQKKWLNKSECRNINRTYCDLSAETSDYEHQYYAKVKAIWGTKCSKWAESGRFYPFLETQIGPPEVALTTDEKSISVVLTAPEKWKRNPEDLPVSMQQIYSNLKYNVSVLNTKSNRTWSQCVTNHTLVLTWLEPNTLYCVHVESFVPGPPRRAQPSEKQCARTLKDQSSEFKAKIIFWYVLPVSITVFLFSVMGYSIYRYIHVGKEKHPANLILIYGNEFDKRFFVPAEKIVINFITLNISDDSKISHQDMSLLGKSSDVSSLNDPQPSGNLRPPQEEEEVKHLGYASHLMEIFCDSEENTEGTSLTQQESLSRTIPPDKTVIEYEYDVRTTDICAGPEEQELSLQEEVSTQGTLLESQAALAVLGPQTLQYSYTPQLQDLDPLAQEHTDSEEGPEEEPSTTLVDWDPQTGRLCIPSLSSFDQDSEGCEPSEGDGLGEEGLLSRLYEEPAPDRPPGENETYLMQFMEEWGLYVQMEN
T1 sequence (looked up) 2: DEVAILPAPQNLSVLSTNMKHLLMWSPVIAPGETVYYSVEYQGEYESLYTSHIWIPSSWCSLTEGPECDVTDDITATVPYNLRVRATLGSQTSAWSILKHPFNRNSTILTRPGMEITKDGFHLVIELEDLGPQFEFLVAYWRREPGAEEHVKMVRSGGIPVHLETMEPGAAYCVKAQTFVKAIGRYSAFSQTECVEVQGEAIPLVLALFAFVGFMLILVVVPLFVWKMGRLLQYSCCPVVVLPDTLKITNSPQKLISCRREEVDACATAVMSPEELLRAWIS

T2: human IL22R1/IL20R2 receptor complex (human, UniProt Q8N6P7 16-574; Q6UXL0 30-311)
T2 sequence (looked up) 1: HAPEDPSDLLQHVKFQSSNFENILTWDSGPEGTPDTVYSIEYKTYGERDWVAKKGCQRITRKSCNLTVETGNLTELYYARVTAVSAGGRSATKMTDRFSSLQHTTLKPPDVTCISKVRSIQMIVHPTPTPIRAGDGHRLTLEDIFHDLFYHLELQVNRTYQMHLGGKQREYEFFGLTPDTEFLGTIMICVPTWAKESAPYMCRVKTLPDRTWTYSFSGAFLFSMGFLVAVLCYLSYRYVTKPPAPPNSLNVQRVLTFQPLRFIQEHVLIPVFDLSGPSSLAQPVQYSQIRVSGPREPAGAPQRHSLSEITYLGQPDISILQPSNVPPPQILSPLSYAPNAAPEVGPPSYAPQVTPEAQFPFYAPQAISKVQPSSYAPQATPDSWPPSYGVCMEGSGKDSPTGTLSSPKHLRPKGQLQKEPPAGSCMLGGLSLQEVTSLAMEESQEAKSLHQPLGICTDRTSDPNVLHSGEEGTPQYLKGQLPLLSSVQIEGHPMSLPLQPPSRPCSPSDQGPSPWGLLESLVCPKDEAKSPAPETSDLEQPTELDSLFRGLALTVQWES
T2 sequence (looked up) 2: T1 sequence (looked up) 2

B1: recombinant human interleukin-20 (ligand)
chain: LKTLNLGSCVIATNLQEIRNGFSEIRGSVQAKDGNIDIRILRRTESLQDTKPANRCCLLRHLLRLYLDRVFKNYQTPDHYTLRKISSLANSFLTIKKDLRLCHAHMTCHCGEEAMKKYSQILSHFEKLEPQAAVVKALGELDILLQWMEETE
B2: F18 (LC: F56Type1; HC: F18) (antibody, human IgG4, V domains shown)
VH: QVQVVQSGAEVKKPGASVRVSCTASGYTFTDYAIHWVRQAPGQRLEWMGWINAGYGNTKYSQKFQGRVTITRDTSASTVYMELSSLRSEDTAVYYCAREGGALSWFGESQGFDYWGQGTLVT
VL: AIQLTQSPSSLSASVGDRVTITCRASQGISSALAWYQQKPGKAPKLLIYDASSLESGVPSRFSGSGSGTDFTLTISSLQPEDFATYYCQQFNSYPLTFGGGTKVEIKR
B3: F56 (LC: F56Type1; HC: F56) (antibody, human IgG4, V domains shown)
VH: B2 VH with V4L, T30P, D31N, V79A, A102V, S104L
VL: B2 VL
B4: 15D2 with an S241P mutation (antibody, V domains shown)
VH: QVQLVQSGAEVKRPGASVKVSCKASGYTFTNDIIHWVRQAPGQRLEWMGWINAGYGNTQYSQNFQDRVSITRDTSASTAYMELISLRSEDTAVYYCAREPLWFGESSPHDYYGMDVWGQGTTVTVSS
VL: B2 VL
notes: IgG4 hinge mutation S241P (Kabat); Expressed in HEK293 or CHO cells (host named under assay); also called 15D2-S241P; not shown: human IgG4 heavy chain constant region
B5: human anti-IL20 antibody C11 (antibody, human IgG1, V domains shown)
VH: B4 VH
VL: B2 VL
B6: human IL19 (ligand)
chain: LRRCLISTDMHHIEESFQEIKRAIQAKDTFPNVTILSTLETLQIIKPLDVCCVTKNLLAFYVDRVFKDHQEPNPKILRKISSIANSFLYMQKTLRQCQEQRQCHCRQEATNATRVIHDNYDQLEVHAAAIKSLGELDVFLAWINKNHEVMFSA
notes: Bought from R&D systems; whole entry named; also called hIL19
B7: human anti-IL20 antibody 2F6 (antibody, human IgG4, V domains shown)
VH: QITLKESGPTLVKPTQTLTLTCTFSGFSFSTNGVGVGWIRQPPGKALEWLALIYWNDDKRYSPSLKSRLTITKDTSKNQVVLTMTNMDPLDTATYYCAHSPFIMVRGVIITFFDFWGQGTLVT
VL: VIWMTQSPSLLSASTGDRVTISCRMSQGISSYLAWYQQKPGKAPELLIYAASTLQSGVPSRFSGSGSGTDFTLTISCLQSEDFATYYCQQYYSFPLTFGGGTKVEIKR

Assays:
[1] = target: cynomolgus IL20R1/IL20R2 receptor complex (cynomolgus monkey); experiment: cell-based or functional assay
[2] = target: cynomolgus IL22R1/IL20R2 receptor complex (cynomolgus monkey); experiment: cell-based or functional assay
[3] = target: T1, human IL20R1/IL20R2 receptor complex; experiment: cell-based or functional assay
[4] = target: T2, human IL22R1/IL20R2 receptor complex; experiment: cell-based or functional assay
[5] = target: B1; experiment: cell-based or functional assay
[6] = target: B1; experiment: SPR (Biacore 3000/T100), antibody amine-coupled on CM5, recombinant hIL20 injected 3.125-100 nM, 1:1 Langmuir, 25 C; antibody from CHO
Experimental: (§1) Affinity studies were performed using a direct binding procedure, with the monoclonal antibody covalently coupled via free amine groups to the carboxymethylated dextrane membrane (CM5) on the sensor chip surface. […] The kinetic parameters for the interaction could be calculated using a 1:1 interaction Langmuir fitting model.
(§2) The purified monoclonal antibodies were immobilized in individual flow cells on a CM5 type sensor chip. Immobilizations were performed using a standard amine coupling procedure, aiming for an immobilization level of 1000 Resonance Units (RU). The antibodies were diluted to 5 μg/ml in 10 mM NaAc pH 5.0. […] Association (injection) was 3 min., followed by a 30 min. dissociation (wash) period. Flow rate was 30 μl/min. Experiments were performed at 25° C. Regeneration of the surface following each cycle, was accomplished by injection of 30 sec. pulse of 10 mM Glycin-HCl pH 1.8, at a 30 ul/min flow rate. Detection in all flow cells simultaneously. Flow cell No. 1 contained no immobilized antibody, and was used for subtraction of background and bulk. […] Data was inspected for mass-transport limitations prior to calculation of the kinetic parameters. Experiments were performed on Biacore 3000 and T100 instruments. Data was evaluated using Biaeval 4.1 and Biacore T100 evaluation software.

[7] = target: B1; experiment: SPR (Biacore 3000/T100), antibody amine-coupled on CM5, recombinant hIL20 injected 3.125-100 nM, 1:1 Langmuir, 25 C; antibody from HEK293
Experimental: as §1, §2

[8] = target: T1, human IL20R1/IL20R2 receptor complex; experiment: inferred from BaF-3(hIL20R) proliferation; IL19 reverted the 15D2 block

fold induction of luciferase reporter in transfected BHK cells, 1 nM cynoIL20 [1]: 2 fold
fold induction of luciferase reporter in transfected BHK cells, 1 nM cynoIL20 [2]: 3 to 4 fold
Molecule: cynomolgus IL20 (from UniProt Q9NYY1 25-176) (ligand)

Molecule: B1
fold induction of luciferase reporter in transfected BHK cells, 1 nM hIL20 [3]: ~3 fold
fold induction of luciferase reporter in transfected BHK cells, 1 nM hIL20 [4]: ~3 fold

Molecule: B2
IC50, inhibition of IL20 induced proliferation of BaF-3(hIL20R) at 1e-9M hIL20 (assay 5) [5]: 50 nM

Molecule: B3
IC50, inhibition of IL20 induced proliferation of BaF-3(hIL20R) at 1e-9M hIL20 (assay 4) [5]: 40 nM
IC50, inhibition of IL20 induced proliferation of BaF-3(hIL20R) at 1e-9M hIL20 (assay 5) [5]: 730 nM

Molecule: B4
Kd [6]: 0.031 nM
koff [6]: 7.1e-05 s⁻¹
kon [6]: 2.3e+06 M⁻¹ s⁻¹
Kd [7]: 0.036 nM
koff [7]: 6.8e-05 s⁻¹
kon [7]: 1.7e+06 M⁻¹ s⁻¹

Molecule: B5
IC50, inhibition of IL20 induced proliferation of BaF-3(hIL20R) at 1e-9M hIL20 (assay 1) [5]: 260 nM
IC50, inhibition of IL20 induced proliferation of BaF-3(hIL20R) at 1e-9M hIL20 (assay 2) [5]: 2000 nM
IC50, inhibition of IL20 induced proliferation of BaF-3(hIL20R) at 1e-9M hIL20 (assay 3) [5]: 370 nM
IC50, inhibition of IL20 induced proliferation of BaF-3(hIL20R) at 1e-9M hIL20 (assay 7) [5]: 186 nM

Molecule: B6
binding result [8]: binds

Molecule: B7
IC50, inhibition of IL20 induced proliferation of BaF-3(hIL20R) at 1e-9M hIL20 (assay 1) [5]: 15400 nM
IC50, inhibition of IL20 induced proliferation of BaF-3(hIL20R) at 1e-9M hIL20 (assay 2) [5]: 13900 nM
IC50, inhibition of IL20 induced proliferation of BaF-3(hIL20R) at 1e-9M hIL20 (assay 3) [5]: 1670 nM
IC50, inhibition of IL20 induced proliferation of BaF-3(hIL20R) at 1e-9M hIL20 (assay 4) [5]: 360 nM
IC50, inhibition of IL20 induced proliferation of BaF-3(hIL20R) at 1e-9M hIL20 (assay 5) [5]: 1800 nM
IC50, inhibition of IL20 induced proliferation of BaF-3(hIL20R) at 1e-9M hIL20 (assay 6) [5]: 320 nM
IC50, inhibition of IL20 induced proliferation of BaF-3(hIL20R) at 1e-9M hIL20 (assay 7) [5]: 15400 nM
